Assays:
[1] = molecular target: T1, streptavidin (magnetic beads) (UniProt P22629 P22629:25-183); assay: pulldown; beads without bFab; details: tags: immobilised on magnetic beads; chain copies: 4
Protocol: Aptamers were incubated with bFab (2.5-fold molar excess), then bound to SAMBs. Supernatants were taken, and the SAMBs washed 3 times. Bound material was eluted with 0.1 M NaOH, and then precipitated, washed, dried, and reconstituted before loading samples on a denaturing acrylamide gel. […] M is a size marker (top band 60 bases; aptamer bands 85 bases).
To assess binding of 10th-cycle singlet aptamers to the selective agent (the Fab target), direct binding assays were carried out. Here, single-stranded aptamer preparations (self-annealed as usual) were incubated with or without biotinylated Fab fragments in PBSM, followed by adsorption onto streptavidin magnetic beads. After this incubation period, the beads were magnetically separated, and the supernatants retained. After 3 washes of the beads, the bound material was eluted by means of 2×20 second incubations with 100 μl of 0.1 M NaOH, with the eluates immediately precipitated with 0.3 M sodium acetate and 3 volumes of ethanol. Pellets were washed with 70% ethanol, and dried. After reconstitution in 5 μl of TE, 1 μl samples were denatured in formamide and run on 10% urea (denaturing) gels. […]

[2] = molecular target: T1, streptavidin (magnetic beads); assay: pulldown; beads without bFab; details: tags: immobilised on magnetic beads; chain copies: 4; remark: listed apart in the source
Protocol: Pellets were washed with 70% ethanol, and dried. After reconstitution in 5 μl of TE, 1 μl samples were denatured in formamide and run on 10% urea (denaturing) gels. Results of such an experiment with the candidate singlet aptamers 228/10AptR1 (see, FIG. 27 and FIG. 29) and 229/10AptL3 (see, FIG. 29) and a specific arbitrary unselected control Right-aptamer (#136; sequence corresponds to: GCAAAGACATCTGGA […] AAGGAGACTTAGAGGC (SEQ ID NO:6); where underlining indicates the 40-mer aptamer tract; remaining sequences are primer sites) are shown in FIG. 30. The supernatants from the 228/10AptR1 and 229/10AptL3 binding (but not #136) were depleted only in the presence of biotinylated Fab. Moreover, the eluted material from biotinylated Fab on the streptavidin magnetic beads was highly enriched for aptamer bands only for 228/10AptR1 and 229/10AptL3 (see, FIG. 30).
Despite successful in situ assembly of binary aptamers upon the target to which they were bound (as in Example 1), it could not be assumed that binary aptamers formed in solution would be capable of binding the same targets. This was assessed using the same aptamers as used in direct binding tests (Example 3; 228/10AptR1 and 229/10AptL3), but where the aptamers were initially ligated together by means of the same splint oligonucleotide as used in Example 1. […]

T1 sequence (P22629 25-183, one chain of several): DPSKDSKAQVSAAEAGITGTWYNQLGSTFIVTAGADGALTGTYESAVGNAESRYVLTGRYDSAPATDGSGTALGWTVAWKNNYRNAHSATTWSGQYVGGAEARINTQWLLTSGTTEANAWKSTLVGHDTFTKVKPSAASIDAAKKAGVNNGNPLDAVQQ

| Binder | binding result [1] | binding result [2] |
| --- | --- | --- |
| aptamer 229 (10AptL3) (ssDNA) DNA: CATCTCCACCTCCATAACCCACGGACGGGCGTCTAGAGAAGTAGGCTGAAATATCGTGGCGAGAACGAGCTGTGTCCTGAAGAAA | no binding |  |
| aptamer 228 (10AptR1) (ssDNA) DNA: GCAAAGACATCTGGACACGCCACTAAGTGGAGGTGATCTGTACTTCATTTATGAGATCGCGGCGAGGAGAAGGAGACTTAGAGGC | no binding |  |
| binary aptamer 229-228 (ligated, 170 nt) (ssDNA) DNA: CATCTCCACCTCCATAACCCACGGACGGGCGTCTAGAGAAGTAGGCTGAAATATCGTGGCGAGAACGAGCTGTGTCCTGAAGAAAGCAAAGACATCTGGACACGCCACTAAGTGGAGGTGATCTGTACTTCATTTATGAGATCGCGGCGAGGAGAAGGAGACTTAGAGGC |  | no binding |
